Test results from patent US20250084163A1 (published 2025).
Positions count from the first letter of the chain named. Where two headings read alike, the source gives them in different places.

B1: RO6D8-jlv1011 (antibody, V domains shown)
VH: QVQLVQSGAEVKKPGASVKVSCKASGYTFTSKYYHWVRQAPGQGLEWMGIINPTSGSTSYAQKFQGRVTMTRDTSTSTVYMELSSLRSEDTAVYYCARDSSRYSGWYFDLWGQGTTVTVSS
VL: AIQLTQSPSSLSASVGDRVTITCRASQGVSTEIAWYQQKPGKAPKLLIYAASSLQSGVPSRFSGSGSGTDFTLTISSLQPEDFATYYCQQYYGYPIAFGQGTRLEIK
B2: RO6D8-s10 (antibody, V domains shown)
VH: QVQLVQSGAEVKKPGASVKVSCKASGYTFTNYYMHWVRQAPGQGLEWMGIINPSGGSTSYAQKFQGRVTMTRDTSTSTVYMELSSLRSEDTAVYYCARSSRSSYYLWVLDLWGQGTTVTVSS
VL: B1 VL with L4M, Y91F, Y92N, G93S, A97T
B3: RO6D8-011 (antibody, V domains shown)
VH: B2 VH with S54T, G55S, S57R, S99D, R101S, S103W, Y105S, L106G, V108Y, L109F
VL: B1 VL with L4M, V29I, S30R, E32D, I33L
B4: RO6D8wt (antibody, V domains shown)
VH: B2 VH with S99D, R101S, S103W, Y105S, L106G, V108Y, L109F
VL: B1 VL with L4M, G28D, S30R, T31A, E32H, I33L, Y91F, Y92N, G93S, A97T

Columns and labels:
Experiment in all cases: SPR
[1] = molecular target: T1, Recombinant truncated human his-tag ROR1 extracellular domain protein (UniProt Q01973 30-403)
[2] = molecular target: T1, Recombinant truncated human his-tag …; remark: listed apart in the source
[3] = molecular target: T1, Recombinant truncated human his-tag …; remark: listed apart in the source

T1 sequence (Q01973 other isoform, or with tags, fused parts or gaps): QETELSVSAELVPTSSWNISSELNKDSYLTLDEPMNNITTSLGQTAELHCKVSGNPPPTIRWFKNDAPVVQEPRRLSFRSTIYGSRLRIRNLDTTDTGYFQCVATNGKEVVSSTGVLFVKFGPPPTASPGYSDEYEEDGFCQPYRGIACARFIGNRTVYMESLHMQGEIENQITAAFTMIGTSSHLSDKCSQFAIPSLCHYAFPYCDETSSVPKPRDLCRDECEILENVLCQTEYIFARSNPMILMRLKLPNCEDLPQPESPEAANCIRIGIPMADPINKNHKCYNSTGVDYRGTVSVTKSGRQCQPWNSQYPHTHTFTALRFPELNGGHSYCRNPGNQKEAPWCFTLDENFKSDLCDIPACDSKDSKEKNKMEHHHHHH

Row | Binder | Kd [1] [nM] | Kd [2] [nM] | Kd [3] [nM]
1 | B1 | 0.796 | 0.796 | 
2 | B2 |  | 2.46 | 2.46
3 | B3 | 2.48 | 2.48 | 
4 | B4 |  | 118 | 118
